Test results published in publication PMC12305020.

Biological target: Tom20 (Chaetomium thermophilum) (Chaetomium thermophilum)
Experiment: cryo-EM structure; TOM complex purified by Tom22-FLAG in GDN, with or without pALDH (maps showed no differences); core 2.7 Å and holo 3.2 Å (pALDH-incubated), core 3.2 Å and holo 3.8 Å (preprotein-free), C2 symmetry imposed

“Tom20 (Chaetomium thermophilum) (receptor)” gave a stoichiometry N of 2.
